Biological target: Sodium-bicarbonate co-transporter NBCn1 (SLC4A7), native in human cells (human (endogenous in MCF-7 and HEK293T)) (UniProt Q9Y6M7)
Assay: proximity ligation

Sequence of UniProt Q9Y6M7 (Q9Y6M7 whole entry): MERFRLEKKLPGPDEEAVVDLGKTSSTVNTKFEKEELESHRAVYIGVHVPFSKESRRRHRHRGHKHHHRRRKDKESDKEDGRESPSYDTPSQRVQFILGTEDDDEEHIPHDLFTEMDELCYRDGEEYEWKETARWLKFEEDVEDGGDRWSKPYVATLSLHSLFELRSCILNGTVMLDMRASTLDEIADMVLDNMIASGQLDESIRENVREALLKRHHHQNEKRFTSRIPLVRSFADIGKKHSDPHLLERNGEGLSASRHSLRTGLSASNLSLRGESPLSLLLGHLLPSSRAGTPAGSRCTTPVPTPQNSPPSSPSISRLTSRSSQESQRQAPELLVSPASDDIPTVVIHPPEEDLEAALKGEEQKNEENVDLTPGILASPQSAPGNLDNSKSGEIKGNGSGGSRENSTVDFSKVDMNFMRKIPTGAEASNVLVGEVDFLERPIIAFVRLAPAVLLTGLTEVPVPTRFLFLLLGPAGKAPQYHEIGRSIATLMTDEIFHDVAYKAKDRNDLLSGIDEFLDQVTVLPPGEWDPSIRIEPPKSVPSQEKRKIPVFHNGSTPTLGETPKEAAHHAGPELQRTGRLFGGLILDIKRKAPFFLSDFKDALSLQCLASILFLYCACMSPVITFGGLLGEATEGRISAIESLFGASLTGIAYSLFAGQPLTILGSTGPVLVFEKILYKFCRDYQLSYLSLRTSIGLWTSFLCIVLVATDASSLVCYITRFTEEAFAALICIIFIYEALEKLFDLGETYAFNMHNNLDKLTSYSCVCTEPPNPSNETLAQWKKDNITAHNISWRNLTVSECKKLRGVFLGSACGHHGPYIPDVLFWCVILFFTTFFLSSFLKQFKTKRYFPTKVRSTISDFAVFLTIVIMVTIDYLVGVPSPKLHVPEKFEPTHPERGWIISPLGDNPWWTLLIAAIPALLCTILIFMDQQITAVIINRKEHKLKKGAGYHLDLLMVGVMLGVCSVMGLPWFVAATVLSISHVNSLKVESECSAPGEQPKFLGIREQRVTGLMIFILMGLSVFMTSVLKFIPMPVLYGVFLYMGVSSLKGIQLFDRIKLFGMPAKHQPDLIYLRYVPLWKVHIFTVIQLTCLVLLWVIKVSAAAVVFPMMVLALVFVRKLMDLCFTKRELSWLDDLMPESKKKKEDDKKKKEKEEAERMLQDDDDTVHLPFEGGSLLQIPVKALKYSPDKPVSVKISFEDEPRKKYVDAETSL

PLA signal, fold over the NBCn1-NHE1 control: 4 fold
PLA signal, fold over the negative control (only NBCn1 antibody): 11 fold
Substance: E-cadherin, native in MCF-7 cells (natural protein)
